From paper PMC7771667, “Discovery of potent and specific inhibitors targeting the active site of MMP-9 from the engineered SPINK2 library” (PLoS ONE, 2020)

How the values were obtained:
active MMP-9_Cat-H6 = target: T1, active MMP-9_Cat-H6 (human, UniProt P14780 107-449); assay: SEC; MMP-9 (25 μM) incubated with TIMP-1 or M91005 (75 μM; molar ratio 3:1) in PBS for 1 h at 4°C; ACQUITY UPLC BEH200 column in PBS; shift of the retention time; conditions: both partners purified
T1 construct: human MMP-9 catalytic domain with the Fn-like domain, without the HPX domain; pro-form residues 20-449; not shown: His6, C-terminal, kept

MMP-9_Cat_E402Q-H6 = target: T2, MMP-9_Cat_E402Q-H6 (human, UniProt P14780 107-449, E402Q); assay: as above; conditions: both partners purified
T2 construct: human MMP-9 catalytic domain with the Fn-like domain, without the HPX domain; pro-form residues 20-449; also called pro-peptide-removed E402Q mutant; active-site mutant; source: HEK293F, transiently expressed, purified (HisTrap excel), pro-peptide removed with MMP-3; not shown: His6, C-terminal, kept
T2 sequence (P14780 107-449 E402Q): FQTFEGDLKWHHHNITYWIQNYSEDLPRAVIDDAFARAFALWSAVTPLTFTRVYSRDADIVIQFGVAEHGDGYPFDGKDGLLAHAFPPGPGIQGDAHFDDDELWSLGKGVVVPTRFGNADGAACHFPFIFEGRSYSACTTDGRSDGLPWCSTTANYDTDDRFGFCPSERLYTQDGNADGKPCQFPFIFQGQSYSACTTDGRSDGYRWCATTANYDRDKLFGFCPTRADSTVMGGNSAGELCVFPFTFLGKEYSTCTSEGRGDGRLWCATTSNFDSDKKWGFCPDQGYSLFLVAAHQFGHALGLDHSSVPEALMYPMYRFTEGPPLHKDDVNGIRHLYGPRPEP

T1 sequence (P14780 107-449): as the sequence (P14780 107-449 E402Q) above, with Q296E counted along it

B1: Human TIMP-1 (natural protein)
chain: not shown
notes: signal peptide in the construct; human TIMP-1 residues 1-207
- binding result (active MMP-9_Cat-H6): binds
- binding result (MMP-9_Cat_E402Q-H6): binds
